Measurements reported in patent US20110020359A1, “METHODS AND COMPOSITIONS FOR TREATING NEURONAL DAMAGE OR DEGENERATION” (California Institute of Technology, priority 2009, published 2011).
One block for each molecule: values may come before it.

What was measured:
[1] = tested on: dissociated rat P5-9 CGN cultures; test: Cerebellar granule neuron (CGN) neurite outgrowth assay; format: cell-based; details: PD98059 25; AG1478 15 nM; Y27632 5 μM; JNK inhibitor II 10 μM
Method: Nitric acid-treated, 15-mm round German glass coverslips are coated with P-Orn in pH 6-8.5 borate buffer (at approximately 50 μg/ml) for about 1 hr at 37° C. and 5% CO2. CSPGs (at approximately 1 μg/ml) or polysaccharides enriched in the CS-A, CS-C, or CS-E sulfation motifs (at approximately 1 μg/ml) are coated on the P-Orn-coated coverslips overnight at 37° C. and 5% CO2. Cerebella from P5-9 Sprague Dawley rats are dissected, purified as described above, and cultured on the coated coverslips at a cell density of about 200 cells/mm^2. Neurons are grown in DMEM/F12, 1% FBS, and N1 supplement for about 24 hr.
In one example, inhibitors against MEK (PD98059, 25 μM; Calbiochem), EGFR (AG1478, 15 nM; Calbiochem), ROCK (Y27632, 5 μM; Calbiochem) and JNK (JNK Inhibitor II, 10 μM; Calbiochem) are added in solution at the start of culturing, and neurons are grown for 24 hr. For neurite outgrowth experiments from p75 knockout mice, cerebella from P5-7 mice, either C57BL/6 wild-type or p75−/− knockout mice, are dissected and purified as described above. Neurons are plated at a density of 200-300 cells/mm2 and cultured for about 24 hr. Cells are then fixed in 4% PFA/10% sucrose, immunostained with neuronal specific anti-class III β-tubulin antibody (TUJ1; Covance), and evaluated for neurite outgrowth. Neurons are imaged using a Nikon TE2000-S fluorescent microscope and quantified using the NIH software Image J. Statistical analysis is performed using the one-way ANOVA; n=50-200 cells per experiment.
P7 rat CGNs are grown for 24 hours on CS-E (1 μg/ml) in the presence of the CS-E antibody (CS-E Ab; 10 μg/ml).

[2] = Surface plasmon resonance, binding to CS-E-enriched polysaccharides; details: SPR; read-out: dissociation constant (Kd)
Method: Surface plasmon resonance experiments can be used to provide quantitative measurements of the binding kinetics or affinity between two or more molecules such as proteins, peptides, and small molecules. All experiments are performed on a Biacore T100 at 25° C. using a Sensor Chip CM5 with a running buffer composed of 0.01 M HEPES, pH 7.4, 0.15 M NaCl, 3 mM EDTA, 0.05% Surfactant P20 (HBS-EP^+). To analyze the binding of anti-CS-E antibody to the CS-E tetrasaccharide, both control and active flow cells are exposed to a 1:1 mixture of N-hydroxysuccinimide hydroxysuccinimide (NHS) and 1-ethyl-3,3-dimethylaminopropyl-carbodiimide (EDC) for 1-10 min at a flow rate of about 10 μL·min^−1. […] The kinetics of the anti-CS-E antibody/CS-E tetrasaccharide interaction is determined by approximately 300 s long injections of anti-CS-E antibody at about 30 μL·min^−1. The dissociation is monitored for about 900 s before the surface is regenerated with a 30 s injection of 6 M guanidine HCl. […] Affinity analysis is measured by injecting the antibody for about 3600 s at 5 μL·min^−1. […] The data is analyzed by plotting the response at equilibrium versus concentration and fitting the resulting curve to the Langmuir equation. […]
In another example, utilizing the surface plasmon resonance methods described, data was generated to quantify measurements of the binding kinetics between CS-E and the binding partner EphA4. […]

[3] = Carbohydrate microarray, binding to CS-E
Method: The concentrations of the solutions range from 250 nM to 40 μM, and are calibrated to one another using the carbazole assay for uronic acid residue. A given concentration of each polysaccharide is spotted five to ten times at different positions on the array. A boundary is created around the polysaccharide spots on the slides using a hydrophobic slide marker (Super Pap Pen, Research Products International) and the slides are blocked with 5-10% fetal bovine serum (FBS) in PBS with gentle rocking at 37 ° C. for about 1 hr, followed by a brief rinse with PBS. Human NgR-Fc or mouse EphB2-Fc (R & D Systems) is reconstituted in 1% BSA in PBS, added to the bound region on the slides in 100 μl quantities at a concentration of 1-2 μM, and incubated at room temperature for about 3 hr. The slides are briefly rinsed three times with PBS, and then incubated with a goat anti-human IgG antibody conjugated to Cy3 (1:5000 in PBS) for 1 hr in the dark with gentle rocking. After rinsing two times with PBS and once with H2O, the microarray is analyzed at 532 nm using a GenePix 5000a scanner, and fluorescence quantification is performed using GenePix 6.0. Binding of the anti-CS-E antibody is evaluated using 100 μl of a 1 μg/ml (˜7 nM) solution of antibody and a goat anti-mouse IgG secondary antibody conjugated to Cy3 (1:5000 in PBS). […]

[4] = Pull-down with biotinylated CS-E; format: binding; details: COS-7 cell lysates, immunoblot
Source text: Pull down assays can be useful for identifying proteins which bind to CS (e.g. CS-A, CS-C, or CS-E). Pull down assays can also be used for identifying agents that disrupt the binding between CS and a known binding partner. Full-length human p75 cDNA (amino acids 1-427; Open Biosystems) is ligated into a pcDNA3 vector (Invitrogen), modified to fuse an HA tag to the 5′ end of the insert. Human NgR (amino acids 27-473; imaGenes) is ligated into a modified pAPtag-5 vector (GenHunter) which fuses a secretion signal sequence and a c-myc tag to the 3′ end of the insert. COS-7 cells are transfected with either NgR-myc, p75-HA, or both using the Lipofectamine (Invitrogen) method. Cells are lysed about 2 days after transfection with 0.5-2% Triton X-100 in PBS containing a protease inhibitor mixture (Roche) by rocking for 15-90 min at 4° C. The lysates are clarified by centrifugation at 5-25,000 rpm for 1-30 min.
Biotin is attached to the free amino group of the residual core peptides of CS-C and CS-E polysaccharides (Seikagaku). […]
Biotinylated CS-C or CS-E (approximately 280 μg each) in 100-500 μl of PBS is added to streptavidin agarose resin (about 140 μl; Pierce) and incubated at room temperature for about 1 hr. […] NgR-myc and p75-HA are detected by immunoblotting with myc-tag (Cell Signaling) or HA-tag (Sigma) antibodies.

Molecule: COc1cc2ncnc(Nc3cccc(Cl)c3)c2cc1OC [AG1478]
- rescue of CS-E- and CSPG-mediated inhibition of neurite outgrowth [1]: rescue

Molecule: O=C1c2ccccc2-c2n[nH]c3cccc1c23 [JNK inhibitor II]
- rescue of CS-E- and CSPG-mediated inhibition of neurite outgrowth [1]: no effect

Molecule: COc1cccc(-c2cc(=O)c3ccccc3o2)c1N [PD98059]
- rescue of CS-E- and CSPG-mediated inhibition of neurite outgrowth [1]: rescue

Molecule: C[C@@H](N)[C@H]1CC[C@H](C(=O)Nc2ccncc2)CC1 [Y27632]
- rescue of CS-E- and CSPG-mediated inhibition of neurite outgrowth [1]: rescue

- Kd [2]: 65 nM
- binding to CS-E-enriched polysaccharides on carbohydrate microarrays [3]: selectively bind
B1: EfnA3: Ephrin A3, ligand that activates Eph receptors (protein, UniProt P52797 23-214, looked up)
Ephrin-A3: QGPGGALGNRHAVYWNSSNQHLRREGYTVQVNVNDYLDIYCPHYNSSGVGPGAGPGPGGGAEQYVLYMVSRNGYRTCNASQGFKRWECNRPHAPHSPIKFSEKFQRYSAFSLGYEFHAGHEYYYISTPTHNLHWKCLRMKVFVCCASTSHSGEKPVPTLPQFTMGPNVKINVLEDFEGENPQVPKLEKSISG

- Kd [2]: 138 nM
- binding to CS-E-enriched polysaccharides on carbohydrate microarrays [3]: selectively bind
B2: EfnB1: Ephrin B1, ligand that activates Eph receptors (protein, UniProt P98172 28-346, looked up)
Ephrin-B1: LAKNLEPVSWSSLNPKFLSGKGLVIYPKIGDKLDIICPRAEAGRPYEYYKLYLVRPEQAAACSTVLDPNVLVTCNRPEQEIRFTIKFQEFSPNYMGLEFKKHHDYYITSTSNGSLEGLENREGGVCRTRTMKIIMKVGQDPNAVTPEQLTTSRPSKEADNTVKMATQAPGSRGSLGDSDGKHETVNQEEKSGPGASGGSSGDPDGFFNSKVALFAAVGAGCVIFLLIIIFLTVLLLKLRKRHRKHTQQRAAALSLSTLASPKGGSGTAGTEPSDIIIPLRTTENNYCPHYEKVSGDYGHPVYIVQEMPPQSPANIYYKV

B3: myc-NgR1: full-length myc-tagged human NgR expressed in COS-7 cells (protein, UniProt Q9BZR6 1-473, looked up)
chain: MKRASAGGSRLLAWVLWLQAWQVAAPCPGACVCYNEPKVTTSCPQQGLQAVPVGIPAASQRIFLHGNRISHVPAASFRACRNLTILWLHSNVLARIDAAAFTGLALLEQLDLSDNAQLRSVDPATFHGLGRLHTLHLDRCGLQELGPGLFRGLAALQYLYLQDNALQALPDDTFRDLGNLTHLFLHGNRISSVPERAFRGLHSLDRLLLHQNRVAHVHPHAFRDLGRLMTLYLFANNLSALPTEALAPLRALQYLRLNDNPWVCDCRARPLWAWLQKFRGSSSEVPCSLPQRLAGRDLKRLAANDLQGCAVATGPYHPIWTGRATDEEPLGLPKCCQPDAADKASVLEPGRPASAGNALKGRVPPGDSPPGNGSGPRHINDSPFGTLPGSAEPPLTAVRPEGSEPPGFPTSGPRRRPGCSRKNRTRSHCRLGQAGSGGGGTGDSEGSGALPSLTCSLTPLGLALVLWTVLGPC
modifications: full-length myc tag
notes: full-length myc-tagged human NgR expressed in COS-7 cells
- pull-down by CS-E [4]: Pull-down of full-length, native NgR by CS-E
